From paper PMC4886647, “Transcriptional Regulation of the Outer Membrane Porin Gene ompW Reveals its Physiological Role during the Transition from the Aerobic to the Anaerobic Lifestyle of Escherichia coli”

B1: PompW -167 to -36 native (dsDNA)
DNA 1: GAGTTAATATTTGCGTAGCGAAAATATTTAAAAATTGATTTAAATCACATTAACCAGGATTCTCAATGCAACTTCTAAATTAATCCAGATCAATAAAGGGTGAATTATCATATGTAATGTGATCTATGTAGG
DNA 2: CCTACATAGATCACATTACATATGATAATTCACCCTTTATTGATCTGGATTAATTTAGAAGTTGCATTGAGAATCCTGGTTAATGTGATTTAAATCAATTTTTAAATATTTTCGCTACGCAAATATTAACTC
B2: PompW m-42.5 (dsDNA)
DNA 1: CATTAACCAGGATTCTCAATGCAACTTCTAAATTAATCCAGATCAATAAAGGGTGAATTATCATATGTAATCTATGTAGGATCATTTGTTACTCCAATGTAGGTATATTCGTC
DNA 2: GACGAATATACCTACATTGGAGTAACAAATGATCCTACATAGATTACATATGATAATTCACCCTTTATTGATCTGGATTAATTTAGAAGTTGCATTGAGAATCCTGGTTAATG
B3: PompW -120 to -3 native (dsDNA)
DNA 1: CATTAACCAGGATTCTCAATGCAACTTCTAAATTAATCCAGATCAATAAAGGGTGAATTATCATATGTAATGTGATCTATGTAGGATCATTTGTTACTCCAATGTAGGTATATTCGTC
DNA 2: GACGAATATACCTACATTGGAGTAACAAATGATCCTACATAGATCACATTACATATGATAATTCACCCTTTATTGATCTGGATTAATTTAGAAGTTGCATTGAGAATCCTGGTTAATG

Assays:
His6-FNR D154A = His6-FNR D154A (Escherichia coli, UniProt P0A9E5 1-250, D154A); assay: EMSA; two retarded bands; EMSA: 20 mM Tris-HCl pH 8.0, 50 mM NaCl, 1 mM EDTA, 1 mM beta-mercaptoethanol, 10% glycerol, 37 C 30 min; 6% polyacrylamide gel in ice bath; 0.2 mM cAMP for CRP; conditions: protein: recombinant; tags: His6 (pET28a); chain copies: 2; blunt
His6-CRP = His6-CRP (Escherichia coli, UniProt P0ACJ8 1-210); assay: EMSA; 0.2 mM cAMP; EMSA: 20 mM Tris-HCl pH 8.0, 50 mM NaCl, 1 mM EDTA, 1 mM beta-mercaptoethanol, 10% glycerol, 37 C 30 min; 6% polyacrylamide gel in ice bath; 0.2 mM cAMP for CRP; conditions: protein: recombinant; tags: His6 (pET28a); chain copies: 2; blunt

Binder | binding result (His6-FNR D154A) | binding result (His6-CRP)
B1 | binds | 
B2 |  | no binding
B3 |  | binds
